Test results as given in patent US7052704B2, “Methods and compositions for lipidization of hydrophilic molecules” (University of Southern California, priority 1995, dated 2006).

What was measured:
[1] = Skin absorption of 125I-labeled BBI or BBIssPal; settings: 5 μl of 0.5 mg/ml on 0.38 cm^2, 30 minutes, 23° C.
[2] = cited from earlier work
[3] = iv-biodistribution of 125I-BBI conjugates
[4] = system: C3H 10T1/2 cells; assay: Plating efficiency in conjunction with transformation assay; assay type: cell-based; settings: 200 cells/dish, 10 days; conjugates 1.0 μg/ml after MCA 1 μg/ml 24 hr
Method: The plating efficiency (PE) of the cells was also studied in conjunction with each of the transformation assays. To determine the PE of the cells in the different treatment groups, cells (200 cells/dish) were seeded into three 60-mm petri dishes per experiment group and treated in the identical manner as the transformation assay cells. The cells in these assays were terminated at 10 days, fixed with 100% methanol, and stained with giemsa; the colonies of 50 cells or more visible under a microscope were then counted. The plating efficiency is defined as the (number of colonies/number of cells seeded)*100.

[5] = system: Human colon carcinoma cells (Caco-2); assay: Uptake of 125I-BBI conjugates into Caco-2 cell monolayers

B1: BBI: hydrophilic protein which has low uptake into cells and is not orally bioavailable; used for chemoprevention (protein, UniProt P01055 40-110, looked up)
Bowman-Birk type proteinase …: DDESSKPCCDQCACTKSNPPQCRCSDMRLNSCHSACKSCICALSYPAQCFCVDITDFCYEPCKPSEDDKEN
[1]
  absorption into the mouse skins: 0.14 μg/cm^2
[2]
  oral bioavailability: not orally bioavailable
[2]; mammalian proteases in the gut, Yavelow et al. 1983
  stability in the GI tract: stable in the GI tract
[3]; 3 mg/kg
  kidney accumulation: rapidly accumulated in the kidneys
[3]; 3 mg/kg, 0.5, 3 and 24 hr
  blood level and removal from circulation: rapidly excreted from the body without attaining high blood levels
[4]
  Plating Efficiency (%): 24 ± 2.0%
[5]; 1% FBS, 10 μg/ml, 60 min, 37° C., ± SEM, three monolayers
  Uptake (ng BBI/mg of cell protein)/hr: 2.2 ± 0.17 (ng BBI/mg of cell protein)/hr
[5]; 10% FBS, 10 μg/ml, 60 min, 37° C., ± SEM, three monolayers
  Uptake (ng BBI/mg of cell protein)/hr: 1.3 ± 0.02 (ng BBI/mg of cell protein)/hr
[5]; BSA/FA: fatty acid-loaded BSA 0.1% (3-molar excess of palmitic acid)
  Uptake (ng BBI/mg of cell protein)/hr: 3.9 ± 0.00 (ng BBI/mg of cell protein)/hr
[5]; BSA: fatty acid-free BSA 0.1%
  Uptake (ng BBI/mg of cell protein)/hr: 4.8 ± 0.00 (ng BBI/mg of cell protein)/hr
[5]; DTT-treated (50 mM, 5 min 60° C. and 25 min 37° C.), serum-free medium
  Uptake (ng BBI/mg of cell protein)/hr: 5.2 ± 0.00 (ng BBI/mg of cell protein)/hr
[5]; Untreated, serum-free medium
  Uptake (ng BBI/mg of cell protein)/hr: 4.8 ± 0.00 (ng BBI/mg of cell protein)/hr
[5]; defatted-BSA 0.1% in medium
  effect of defatted-BSA on uptake: not affected
[5]; fatty acid-loaded BSA 0.1%
  effect of fatty acid-loaded BSA on uptake: again not affected
[5]; serum free (BSA-free) Dulbecco medium
  Uptake (ng BBI/mg of cell protein)/hr: 4.8 ± 0.00 (ng BBI/mg of cell protein)/hr
[5]; serum free, 10 μg/ml, 60 min, 37° C., ± SEM, three monolayers
  Uptake (ng BBI/mg of cell protein)/hr: 3.9 ± 0.19 (ng BBI/mg of cell protein)/hr
[5]; serum-free medium
  effect of exposure to DTT on uptake: did not cause a reduction in the uptake
